According to article PMC7467689:

What was measured:
[1] = target: coat protein of ssRNA bacteriophage AVE016 (uncultured ssRNA bacteriophage AVE016 (metagenome-derived)); experiment: crystal structure
[2] = target: coat protein of ssRNA bacteriophage EMS014 (uncultured ssRNA bacteriophage EMS014 (metagenome-derived)); experiment: crystal structure

| Substance | stoichiometry N [1] [CP monomers] | stoichiometry N [2] |
| --- | --- | --- |
| coat protein of ssRNA bacteriophage AVE016 (natural protein) | 210 |  |
| coat protein of ssRNA bacteriophage EMS014 (natural protein) |  | 2 |
